# “And” between values parts separate entries of the source, which are not always exact repeats. Equal values may be shown once. Read-outs that look alike come from different tables or passages of the source.
# T1: amphoterin (Ampho) (Homo sapiens, UniProt P09429)
# T1 sequence (P09429 1-215): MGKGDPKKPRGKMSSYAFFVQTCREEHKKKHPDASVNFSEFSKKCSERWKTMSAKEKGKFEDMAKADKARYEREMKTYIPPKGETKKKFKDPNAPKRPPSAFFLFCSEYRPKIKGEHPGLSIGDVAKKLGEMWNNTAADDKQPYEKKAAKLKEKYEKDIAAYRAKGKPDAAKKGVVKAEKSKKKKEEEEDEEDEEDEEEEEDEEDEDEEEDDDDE
# T2: S100b (S100) (Homo sapiens, UniProt P04271)
# T2 sequence (P04271 1-92): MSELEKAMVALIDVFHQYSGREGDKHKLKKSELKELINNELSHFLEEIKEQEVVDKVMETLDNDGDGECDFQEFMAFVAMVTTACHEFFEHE
# B1: TTP-3000: three domain RAGE fusion protein: human RAGE N-terminal sequence (to position 136) linked to human IgG Fc (γ1) without hinge; SEQ ID NO: 35-37, 57 (protein)
# chain: QNITARIGEPLVLKCKGAPKKPPQRLEWKLNTGRTEAWKVLSPQGGGPWDSVARVLPNGSLFLPAVGIQDEGIFRCQAMNRNGKETKSNYRVRVYQIPGKPEIVDSASELTAGPSVFLFPPKPKDTLMISRTPEVTCVVVDVSHEDPEVKFNWYVDGVEVHNAKTKPREEQYNSTYRVVSVLTVLHQDWLNGKEYKCKVSNKALPAPIEKTISKAKGQPREPQVYTLPPSRDELTKNQVSLTCLVKGFYPSDIAVEWESNGQPENNYKTTPPVLDSDGSFFLYSKLTVDKSRWQQGNVFSCSVMHEALHNHYTQKSLSLSPGK
# modifications: non-natural residues
# B2: rodent sRAGE: rodent soluble RAGE (protein, UniProt Q62151 23-340, looked up)
# extracellular domain: GQNITARIGEPLVLSCKGAPKKPPQQLEWKLNTGRTEAWKVLSPQGGPWDSVARILPNGSLLLPATGIVDEGTFRCRATNRRGKEVKSNYRVRVYQIPGKPEIVDPASELTASVPNKVGTCVSEGSYPAGTLSWHLDGKLLIPDGKETLVKEETRRHPETGLFTLRSELTVIPTQGGTHPTFSCSFSLGLPRRRPLNTAPIQLRVREPGPPEGIQLLVEPEGGIVAPGGTVTLTCAISAQPPPQVHWIKDGAPLPLAPSPVLLLPEVGHEDEGTYSCVATHPSHGPQESPPVSIRVTETGDEGPAEGSVGESGLGTLA
# modifications: extracellular domain
# notes: rodent soluble RAGE
# B3: mouse sRAGE: mouse soluble RAGE used as comparator in the AD mouse model (protein, UniProt Q62151 23-340, looked up)
# extracellular domain: B2 extracellular domain
# modifications: extracellular domain
# notes: mouse soluble RAGE used as comparator in the AD mouse model
# Columns and labels:
# [1] = cited from earlier work
# amphoterin (Ampho) = target: T1, amphoterin (Ampho); test: In vitro ligand binding ELISA, immobilized amphoterin; conditions: ligand 5 micrograms per well; fusion protein at increasing dilutions, 37° C. one hour
# Procedure: (§1) For example, the RAGE fusion protein may be used in a binding assay to identify potential RAGE ligands. In one example embodiment of such a binding assay, a known RAGE ligand may coated onto a solid substrate (e.g., Maxisorb plates) at a concentration of about 5 micrograms per well, where each well contains a total volume of about 100 microliters (4). The plates may be incubated at 4° C. overnight to allow the ligand to absorb or bind to the substrate. Alternatively, shorter incubation periods at higher temperature (e.g., room temperature) may be used. […] The RAGE fusion protein bound to the immobilized ligand may be detected in a variety of ways. […] The bound complex may be detected by adding the alkaline phosphatase substrate, para-nitrophenylphosphate (PNPP), and measuring conversion of PNPP to para-nitrophenol (PNP) as an increase in absorbance at 405 nm. […] In the absence of ligand (i.e., coating with only BSA) there was no increase in absorbance. […] Binding was detected by the addition of an immunodetection complex containing a monoclonal mouse anti-human IgG1 diluted 1:11,000 to a final assay concentration (FAC) of 21 ng/100 μL, a biotinylated goat anti-mouse IgG diluted 1:500, to a FAC of […], and an avidin-linked alkaline phosphatase. […]
# S100b (S100) = target: T2, S100b (S100); test: In vitro ligand binding ELISA, immobilized S100b; conditions: ligand 5 micrograms per well; fusion protein at increasing dilutions, 37° C. one hour
# Procedure: as §1
# [2] = tested on: recurrent diabetes in syngeneic NOD transplant model; test: Syngeneic islet transplantation in NOD mice; format: in vivo
# Text: Spontaneous autoimmune non-obese diabetic mice (NOD/LtJ) (12-25 weeks old) served as recipients for islet cells, while young pre-diabetic NOD/LtJ mice (6-7 weeks old) served as donors in syngeneic islet transplantation. Islets for transplantation were isolated as described above in Section A (Allogeneic Islet Transplantation). Diabetic NOD/LtJ mice received islet grafts within 2 days of the diagnosis of diabetes. 500-600 freshly isolated islets (approximately 550 islet equivalents) from donor mice were picked up with an infusion set and transplanted into the subcapular space of the right kidney. Test compounds were administered as soon as the islets were transplanted and continued for approximately 8 weeks. […] Islet graft function was monitored by serial blood glucose measurements daily for the first 2 weeks after islet transplantation, followed by every other day thereafter. Reversal of diabetes was defined as blood glucose less than 200 mg/dl on two consecutive measurements. Percentage graft loss was determined when blood glucose exceeded 250 mg/dl on two consecutive measurements.
# amyloid-beta (Abeta) = target: T3, amyloid-beta (Abeta) (Homo sapiens, UniProt P05067); test: In vitro ligand binding ELISA, immobilized amyloid-beta; conditions: ligand 5 micrograms per well; fusion protein at increasing dilutions, 37° C. one hour
# T3 construct: Amyloid Beta (1-40) from Biosource; purchased Biosource
# T3 sequence (P05067 672-711 limits assumed): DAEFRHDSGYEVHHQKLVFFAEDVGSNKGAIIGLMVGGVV
# Procedure: as §1
# [3] = normal and diabetic rats; cited from earlier work
# mouse model of AD = test: APP transgenic mouse model of AD; format: in vivo, mice; conditions: treated for 3 months, qod i.p.; versus vehicle and human IgG1
# Procedure: Experiments were performed to evaluate whether TTP-4000 could affect amyloid formation and cognitive dysfunction in a mouse model of AD. The experiments utilized transgenic mice expressing the human Swedish mutant amyloid precursor protein (APP) under the control of the PDGF-B chain promoter. Over time, these mice generate high levels of the RAGE ligand, amyloid beta (Aβ).
# The APP mice (male) used in this experiment were designed by microinjection of the human APP gene (with the Swedish and London mutations) into mouse eggs under the control of the platelet-derived growth factor B (PDGF-B) chain gene promoter. The mice were generated on a C57BL/6 background and were developed by Molecular Therapeutics Inc. Animals were fed ad libitum and maintained by brother sister mating. The mice generated from this construct develop amyloid deposits starting at 6 months of age. Animals were aged for 6 months and then maintained for 90 days and sacrificed for amyloid quantification.
# APP transgenic mice were administered vehicle or TTP4000 every other day [qod (i.p.)] for 90 days starting at 6 months of age. At the end of the experiment, animals were sacrificed and examined for Aβ plaque burden in the brain (i.e., plaque number). A 6-month control APP group was used to determine the baseline of amyloid deposits. In addition, at the end of the study, the animals were subjected to behavioral (Morris water maze) analysis. The investigators were blinded to the study compounds. Samples were given to the mice at 0.25 ml/mouse/every other day.
# For histological examination, the animals were anesthetized with an intraperitoneal injection (IP) of sodium pentobarbital (50 mg/kg). The animals were transcardially perfused with 4° C., phosphate-buffered saline (PBS) followed by 4% paraformaldehyde. The brains were removed and placed in 4% paraformaldehyde over night. The brains were processed to paraffin and embedded. Ten serial 30-μm thick sections through the brain were obtained. Sections were subjected to primary antibody overnight at 4° C. (Aβ peptide antibody) in order to detect the amyloid deposits in the brain of the transgenic animals (Guo et al., J. Neurosci., 22:5900-5909 (2002)). Sections were washed in Tris-buffered saline (TBS) and secondary antibody was added and incubated for 1 hour at room temperature. After washing, the sections were incubated as instructed in the Vector ABC Elite kit (Vector Laboratories) and stained with […] (DAB). The reactions were stopped in water and cover-slipped after treatment with xylene. The amyloid area in each section was determined with a computer-assisted image analysis system, consisting of a Power Macintosh computer equipped with a Quick Capture frame grabber card, Hitachi CCD camera mounted on an Olympus microscope and camera stand. NIH Image Analysis Software, v. 1.55 was used. The images were captured and the total area of amyloid was determined over the ten sections. A single operator blinded to treatment status performed all measurements. Summing the amyloid volumes of the sections and dividing by the total number of sections was done to calculate the amyloid volume.
# For quantitative analysis, an enzyme-linked immunosorbent assay (ELISA) was used to measure the levels of human total Aβ, Aβtotal and Aβ1-42 in the brains of APP transgenic mice (Biosource International, Camarillo, Calif.). Aβtotal and Aβ1-42 were extracted from mouse brains by guanidine hydrochloride and quantified as described by the manufacturer. […]
# [4] = 300 ug LD + 100 ug qod ip, syngeneic islets in NOD mice
molecule,measurement,setting,value
"human sRAGE: human soluble RAGE (V, C1 and C2 domains)",half-life,[1]; assessed by retention of immunoreactivity sRAGE,less than 2 hours
same,half-life in plasma,[1],about 2 hours
sRAGE: soluble RAGE: the RAGE protein that does not include the transmembrane region or the cytoplasmic tail; species not stated at the place [reference compound],half-life in plasma,[1],only a few hours
B1,binding to immobilized amphoterin (increase in absorbance at 405 nm),amphoterin (Ampho),specifically interact
same,binding to immobilized S100b (increase in absorbance at 405 nm),S100b (S100),specifically interact
same,day of graft loss for each animal,[2]; [4],42 days and 41 days and 34 days and 32 days and 30 days and 44 days and 46 days
same,"day of graft loss, Mean",[2]; [4],38.43 days
same,"time before detection of graft failure, in words",[2]; versus animals not treated at all,increase in the time before detection of graft failure
same,binding to immobilized amyloid-beta (increase in absorbance at 405 nm),amyloid-beta (Abeta),specifically interact
B2,half-life,[3],approximately 20 hours
B3,Aβ plaques in the brain,mouse model of AD,fewer Aβ plaques
same,cognitive dysfunction (Morris water maze),mouse model of AD,less cognitive dysfunction

# Reference: patent US8344120B2, “Nucleic acid molecules encoding rage fusion proteins” (TransTech Pharma, Inc., priority 2006, dated 2013)
